From paper PMC9548623

B1: DH272.2 Fab (Fab, V domains shown)
VH: QVQLVQSGAEVKKPGASVKVSCQASGYRVSDHFVNWMRQAPGQRLEWIGWFNPDSRDTHYADKFKGRVTSTKIGNTVYMQLSSLRSDDTAVYYCARERYDFHSGLEGSFDFWGQGTLVTV
VL: DIVMTQSPLSLPVTLGQPASISCRSSQSLVHNYGNTYLNWFQQRPGQSPRRLIYKVSGRDSGVPDRFSGGGSGTDFTLKISSVEAEDVGVYYCMQGTHWPRTFGQGTKLEIN

What was measured:
[1] = biological target: DH475 Fab, heavy chain W104A (human); assay: BLI; BLItz; Fab (0.2 mg/mL) immobilised on Anti-Human Fab-CH1 2nd Generation (FAB2G) biosensors, Env constructs titrated; 2.5 mM Tris pH 7.5, 350 mM NaCl; global fit
DH475 Fab, heavy chain W104A (human), sequence (heavy, as listed by the source, chain 1 of 2): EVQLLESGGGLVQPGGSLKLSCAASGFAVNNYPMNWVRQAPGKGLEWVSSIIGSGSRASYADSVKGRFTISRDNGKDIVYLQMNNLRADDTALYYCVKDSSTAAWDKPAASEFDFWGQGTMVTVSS
DH475 Fab, heavy chain W104A (human), sequence (light, as listed by the source, chain 2 of 2): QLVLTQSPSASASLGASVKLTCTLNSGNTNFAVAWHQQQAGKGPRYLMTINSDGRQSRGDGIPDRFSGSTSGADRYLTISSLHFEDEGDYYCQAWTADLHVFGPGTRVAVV

[2] = biological target: DH475 Fab, heavy chain N30A (human); assay: as above
DH475 Fab, heavy chain N30A (human), sequence (heavy, as listed by the source, chain 1 of 2): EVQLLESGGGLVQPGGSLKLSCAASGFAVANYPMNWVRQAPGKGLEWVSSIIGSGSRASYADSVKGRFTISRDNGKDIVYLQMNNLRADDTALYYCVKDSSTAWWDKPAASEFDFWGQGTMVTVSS
DH475 Fab, heavy chain N30A (human), sequence (light, as listed by the source, chain 2 of 2): as the sequence (light, as listed by the source, chain 2 of 2) above

[3] = biological target: DH475 Fab, heavy chain N31A (human); assay: as above
DH475 Fab, heavy chain N31A (human), sequence (heavy, as listed by the source, chain 1 of 2): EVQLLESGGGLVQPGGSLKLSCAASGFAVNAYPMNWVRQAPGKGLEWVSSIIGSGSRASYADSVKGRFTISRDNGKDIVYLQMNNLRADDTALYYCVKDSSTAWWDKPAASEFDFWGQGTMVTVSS
DH475 Fab, heavy chain N31A (human), sequence (light, as listed by the source, chain 2 of 2): as the sequence (light, as listed by the source, chain 2 of 2) above

[4] = biological target: DH475 Fab, heavy chain D77A (human); assay: as above
DH475 Fab, heavy chain D77A (human), sequence (heavy, as listed by the source, chain 1 of 2): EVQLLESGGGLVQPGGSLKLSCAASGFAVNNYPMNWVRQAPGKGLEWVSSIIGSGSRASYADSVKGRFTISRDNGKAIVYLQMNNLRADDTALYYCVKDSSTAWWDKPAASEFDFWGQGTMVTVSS
DH475 Fab, heavy chain D77A (human), sequence (light, as listed by the source, chain 2 of 2): as the sequence (light, as listed by the source, chain 2 of 2) above

[5] = biological target: CH848 TF DS SOSIP Env trimer (HIV-1 (donor CH848, transmitted/founder)); assay: ITC; 157 uM DH272.2 injected into a cell with 7.59 uM CH848 TF DS SOSIP Env; single site model

Molecule	Kd [1]	Kd [2]	Kd [3]	Kd [4]	stoichiometry N [5]
CH848 transmitted/founder (TF) gp120 core (domain or fragment)	> 50 µM	> 50 µM	> 50 µM	> 50 µM	–
B1	–	–	–	–	3
